One may read the stoichiometry N as the number of molecules, sites or subunits per partner or assembly.

Drawing on publication PMC3081413, this text covers relative Vmax of phosphorylation of full-length IκBα by IKKβ EE, stoichiometry N and fold weaker dimerization affinity than WT for four substances.

One assay addresses GST-IκBα (1–317) (UniProt P25963).
Assay [1] concerns the target Full-length hIKKβ (1–756) (human) (UniProt O14920). Description: SEC. In general terms: In gel filtration, larger molecules generally elute earlier.
Assay [2] deals with WT IKKβ (hIKKβ, parent of the purified dimerization mutants of Figure 5c) (human) (UniProt O14920). Description: AUC.
The target of assay [3] is hIKKβ KD-ULD-SDD region (1–678) (human) (UniProt O14920). Description: SEC.
Assay [4] concerns the target hIKKβ W655D/L658D, purified (human) (UniProt O14920). Description: AUC.

UniProt P25963, sequence (P25963 whole entry): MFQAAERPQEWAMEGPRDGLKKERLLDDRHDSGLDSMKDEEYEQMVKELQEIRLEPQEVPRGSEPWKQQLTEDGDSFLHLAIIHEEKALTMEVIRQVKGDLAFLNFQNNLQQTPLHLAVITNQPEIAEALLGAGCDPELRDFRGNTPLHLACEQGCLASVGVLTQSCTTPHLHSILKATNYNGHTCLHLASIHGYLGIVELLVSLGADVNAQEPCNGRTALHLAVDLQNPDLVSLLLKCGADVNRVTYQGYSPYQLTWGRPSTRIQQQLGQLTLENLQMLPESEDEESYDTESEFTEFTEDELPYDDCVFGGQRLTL

“Full-length hIKKβ (1–756) (from UniProt O14920 1-756) (enzyme)” had a relative Vmax of phosphorylation of full-length IκBα by IKKβ EE with GST-IκBα (1–317) of 502 a.u. The same substance showed a stoichiometry N in assay [1] of 2. Regarding “WT IKKβ (hIKKβ, parent of the purified dimerization mutants of Figure 5c) (from UniProt O14920 1-756) (enzyme)”, in assay [2], the stoichiometry N stood at 2. Substance “hIKKβ KD-ULD-SDD region (1–678) (from UniProt O14920 1-678) (domain or fragment)” registered a stoichiometry N in assay [3] of 2.

Substance “hIKKβ W655D/L658D, purified (from UniProt O14920 1-756) (enzyme)” registered a fold weaker dimerization affinity than WT in assay [4] of 167 fold.
